Patent US20190201542A1, “ANTI-DLL3 DRUG CONJUGATES FOR TREATING TUMORS AT RISK OF NEUROENDOCRINE TRANSITION” (ABBVIE STEMCENTRX LLC, priority 2016, published 2019)

Biological target: T1, DLL3 (Homo sapiens, UniProt Q9NYJ7)
T1 sequence (Q9NYJ7 27-618): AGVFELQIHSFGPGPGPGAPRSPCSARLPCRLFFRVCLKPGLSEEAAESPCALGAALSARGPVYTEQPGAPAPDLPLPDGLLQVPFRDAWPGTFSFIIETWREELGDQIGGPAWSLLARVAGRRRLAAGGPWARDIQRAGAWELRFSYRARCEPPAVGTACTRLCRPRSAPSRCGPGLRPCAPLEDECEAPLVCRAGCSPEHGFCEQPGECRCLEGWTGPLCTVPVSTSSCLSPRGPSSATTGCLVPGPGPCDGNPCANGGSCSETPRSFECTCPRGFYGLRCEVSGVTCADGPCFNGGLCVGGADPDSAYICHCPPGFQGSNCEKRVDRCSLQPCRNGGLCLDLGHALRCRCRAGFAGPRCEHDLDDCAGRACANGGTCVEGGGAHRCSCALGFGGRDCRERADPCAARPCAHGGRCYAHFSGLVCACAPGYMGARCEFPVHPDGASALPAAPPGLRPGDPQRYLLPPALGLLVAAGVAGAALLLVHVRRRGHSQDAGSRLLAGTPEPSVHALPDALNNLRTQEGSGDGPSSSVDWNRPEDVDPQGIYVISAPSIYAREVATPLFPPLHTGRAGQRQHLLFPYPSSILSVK
Test: Binning (competitive antibody binding)
Text: It is also possible to characterize the antibodies of the invention in terms of the group or “bin” to which they belong. “Binning” refers to the use of competitive antibody binding assays to identify pairs of antibodies that are incapable of binding an immunogenic determinant simultaneously, thereby identifying antibodies that “compete” for binding. Competing antibodies may be determined by an assay in which the antibody or immunologically functional fragment being tested prevents or inhibits specific binding of a reference antibody to a common antigen. Typically, such an assay involves the use of purified antigen (e.g., DLL3, ASCL1, or a domain or fragment thereof) bound to a solid surface or cells, an unlabeled test antibody and a labeled reference antibody. Competitive inhibition is measured by determining the amount of label bound to the solid surface or cells in the presence of the test antibody. Additional details regarding methods for determining competitive binding are provided in the Examples herein. […]
A schematic summary of the domain-level epitope mapping data of the antibodies tested is presented in FIG. 2, with antibodies binding a linear epitope underlined and, where determined, the corresponding bin noted in parenthesis. […]

Binning with SC16.34 or SC16.56: not to bin with SC16.34 or SC16.56
B1: SC16.23: murine anti-DLL3 antibody (antibody, V domains shown)
VL: QIVLTQSPAIMSASPGEKVTLTCSASSSVSSRYLYWYQQKPGSSPKLWIYSTSNLASGVPARFSGSGSGTSYSLIISSMEAEDAASYFCHQWSNYPLTFGAGTKLELK
VH: QVTLKESGPGILQPSQTLSLTCSFSGFSLSTSNTGIGWIRQPSGTGLEWLAHIWWNDDKYYNPSLKSRLTISKETSNNQVFLKITNVDTADTASYFCVQIGRDYSNYAWYFDVWGAGTTVTVSS
